Reference: patent US6077682

Target: EnvZ(C)(223-289) (Escherichia coli)

## EnvZ(C)(290-450) (enzyme)
  trans-autophosphorylation of sub-domain A with [gamma-32P]ATP, autoradiography: 5%
